Changes are numbered by the printed parent chain. One block for each binder: values may come before it.
Experiments:
[1] = molecular target: T1, cynomolgus monkey IL-2Rα/CD25 subunit (cynomolgus monkey, UniProt H6WS54 22-213); experiment: ELISA, bivalent; EC50 cyno vs human subunit
T1 construct: also called Cyno IL-2R subunit
T1 sequence: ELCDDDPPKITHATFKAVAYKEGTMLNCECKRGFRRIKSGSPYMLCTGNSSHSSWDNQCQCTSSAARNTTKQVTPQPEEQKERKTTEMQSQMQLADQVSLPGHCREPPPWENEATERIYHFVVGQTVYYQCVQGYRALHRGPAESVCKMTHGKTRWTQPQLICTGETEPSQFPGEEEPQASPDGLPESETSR
Procedure: (§1) Monospecific monovalent and bivalent IL-2Rα-, IL-2Rβ- and IL-2Rγ-specific antibodies that were selected on human IL-2R subunits, were evaluated for their cross-reactivity in an ELISA. Human and cynomolgus monkey receptor subunits (Acrobiosystems, KactusBiosystems) were coated at 1 μg/mL in PBS (pH 7.4) in a Maxisorp plate (Nunc) and incubated overnight at 4° C. The plates were further washed with PBS-Tween pH 7.4 and incubated with 1% cascin/PBS-Tween blocking solution for 1 hour shaking at 400 rpm. Subsequently, the plate was washed three times with PBS-Tween pH 7.4, after which the test antibodies diluted in 0.1% casein/PBS-Tween were added to the plate and incubated for 1 hour. The plate was again washed three times, after which goat anti-human IgG Fc (HRP) detection antibody (abcam) was added to the plate and incubated for 30 min. The colouring reaction was performed with TMB (Sigma-Aldrich) and stopped with 0.5N H₂SO₄.
(§2) Absorbance was measured at 450 nm with the reference wavelength of 620 nm using spectrophotometer. Final analysis and graphic output were performed with GraphPad Prism version 8 (GraphPad Software). The dose-response binding curves were fit to a nonlinear regression model (log (agonist) vs. response with a variable slope (four parameters)).

[2] = molecular target: T2, human interleukin-2 receptor α-chain (IL-2Rα; CD25), recombinant protein (human, UniProt P01589 22-240, limits assumed); experiment: ELISA, bivalent VHH-hFc
T2 construct: also called huIL2R-a; hIL-2RA
T2 sequence: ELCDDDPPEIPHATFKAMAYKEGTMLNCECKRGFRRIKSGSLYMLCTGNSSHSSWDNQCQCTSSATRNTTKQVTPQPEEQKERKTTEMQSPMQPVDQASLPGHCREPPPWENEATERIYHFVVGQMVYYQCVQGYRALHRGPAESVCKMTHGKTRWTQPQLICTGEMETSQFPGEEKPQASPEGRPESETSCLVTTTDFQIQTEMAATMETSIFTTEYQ
Procedure: as §1, §2

[3] = molecular target: T1, cynomolgus monkey IL-2Rα/CD25 subunit; experiment: ELISA, bivalent VHH-hFc
Procedure: as §1, §2

[4] = molecular target: T3, cynomolgus monkey IL-2Rβ/CD122 subunit (cynomolgus monkey, UniProt Q38J85 27-239, limits assumed); experiment: ELISA, bivalent; EC50 cyno vs human subunit
T3 construct: also called Cyno IL-2R subunit
T3 sequence (looked up): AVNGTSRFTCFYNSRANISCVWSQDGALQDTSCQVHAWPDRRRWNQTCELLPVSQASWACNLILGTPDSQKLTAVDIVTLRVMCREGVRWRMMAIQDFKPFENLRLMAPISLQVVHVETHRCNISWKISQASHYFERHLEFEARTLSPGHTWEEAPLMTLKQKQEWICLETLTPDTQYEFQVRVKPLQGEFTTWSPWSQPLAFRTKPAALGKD
Procedure: as §1, §2

[5] = molecular target: T4, human interleukin-2 receptor β-chain (IL-2Rβ; CD122), recombinant protein (human, UniProt P14784 27-240); experiment: ELISA, bivalent VHH-hFc
T4 construct: also called human IL-2R subunit CD122
T4 sequence: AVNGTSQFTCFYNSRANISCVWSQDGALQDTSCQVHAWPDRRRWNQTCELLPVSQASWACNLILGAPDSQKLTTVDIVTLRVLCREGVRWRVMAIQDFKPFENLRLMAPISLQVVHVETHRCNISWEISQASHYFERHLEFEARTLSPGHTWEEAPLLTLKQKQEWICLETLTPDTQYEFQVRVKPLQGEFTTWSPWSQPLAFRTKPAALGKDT
Procedure: as §1, §2

[6] = molecular target: T3, cynomolgus monkey IL-2Rβ/CD122 subunit; experiment: ELISA, bivalent VHH-hFc
Procedure: as §1, §2

Fold change [1]: 1 fold
EC50 [2]: 0.061 nM
EC50 [3]: 0.06 nM
B1: 10-MP05F03 VHH-hFc, monospecific bivalent (Fc fusion)
chain: QVQLVESGGGLVQAGGSLRLSCAASGIPFDNYAMGWFRQAPGKEREFVAARDLEGIITRYGDSVKGRFTISRGNAKNTVFLQMNSLKPEDTAVYYCAARDGGVVAGSRSSAQYNYWGQGTQVTVSS
notes: IgG1 Fc LALA-PG; also called anti-IL-2Rα Ab 10; anti-IL-2Rα VHH 10; not shown: human IgG1 CH2 and CH3 domains (Fc)

Fold change [4]: 1.2 fold
EC50 [5]: 0.085 nM
EC50 [6]: 0.105 nM
B8: 166-MP02H08 VHH-hFc, monospecific bivalent (Fc fusion)
chain: EVQLVESGGGLVQAGDSLRISCAASGRIFSNYAMGWFRQAPGKETEFVAGITHLTSTTHYADSVKGRFTISRDNAKNTMHLQMNNLKPEDTALYYCAADRNIKITADWSYWGQGTQVTVAS
notes: IgG1 Fc LALA-PG; not shown: human IgG1 CH2 and CH3 domains (Fc)

Fold change [4]: 1.3 fold
EC50 [5]: 0.053 nM
EC50 [6]: 0.066 nM
B9: 189-MP02B12 VHH-hFc, monospecific bivalent (Fc fusion)
chain: QVQLVESGGGLVQAGGSLRLSCAASGRADSNAIMAWFRQAPGKEREFIVAVTYSGMPTYQDDSVQGRFTASRDNAKNTVYLQMNSLKPEDTAVYYCAARMYSASTYYGDYDYWGQGTQVTVSS
notes: as for B8

Fold change [1]: 0.9 fold
EC50 [2]: 0.056 nM
EC50 [3]: 0.05 nM
B10: 6-MP01G05 VHH-hFc, monospecific bivalent (Fc fusion)
chain: QVQLQESGGGLVQAGGSLRLSCAASGRTFSSYAMGWFRQAPGKEREFVAVISWNVDNTEYTDSVKGRFTISRDNDKNMVYLQMNSLKPEDTAVYYCAADSIPLSSDMSPTATEYGYWGQGTQVTVSS
notes: as for B8

EC50 [2]: 0.047 nM
binding result [3]: no binding
B12: 92-MP05C07 VHH-hFc, monospecific bivalent (Fc fusion)
chain: QVQLVESGGGSVQAGGSLRLSCEASGRTLFSSYGMGWFRQAPGKEREFVGAISRFGTYTSYADPVKDRFTISRDNAKSTVYLQMNNTKPEDTAVYYCAAYTYSGSFYSTVKTHHDEYRYWGQGTQVTVSS
notes: as for B8

Fold change [4]: 1 fold
EC50 [5]: 0.06 nM
EC50 [6]: 0.06 nM
B13: 115-MP02E01 VHH-hFc, monospecific bivalent (Fc fusion)
chain: EVQLVESGGGLVQIGGSLRLSCAASGRTFSSITMAYFRQVPGKEREWVAGINFSGTRTFYADSVKGRFLISRDDAKSTMYLQMNSLKPEDTAVYYCAASPRGFYGPGNALYDYWGQGTQVTVSS
notes: as for B8

Fold change [1]: 1.9 fold
EC50 [2]: 0.057 nM
EC50 [3]: 0.106 nM
B15: 3-MP01E03 VHH-hFc, monospecific bivalent (Fc fusion)
chain: QVQLVESGGGLVQAGGSLRLSCTASGRTLSSYSMAWFRQAADKGREFVTAISSSGVVTHVLDSVKGRFTISRDNAKNTVYLQMNSLQPEDTALYFCAGTASSYSTYEANYNYWGQGTLVTVSS
notes: as for B8

Fold change [4]: 1.1 fold
EC50 [5]: 0.087 nM
EC50 [6]: 0.099 nM
B16: 193-MP02F12 VHH-hFc, monospecific bivalent (Fc fusion)
chain: QLQLVESGGGLVQTGTSLRLSCAASGHTSRINAMGWFRQFPGKEREFVAAISRNGGSTVYVDSVKGRFTISRDNAKSTVYLQMNSLKPEDTAVYYCTATDAVGWTTRWMTADFGFWGQGTQVTVSS
notes: as for B8

Fold change [4]: 1.9 fold
EC50 [5]: 0.084 nM
EC50 [6]: 0.157 nM
B17: 161-MP02C08 VHH-hFc, monospecific bivalent (Fc fusion)
chain: EVQLVESGGGLVQAGGSLRLSCAASGSTFSRQPMYWFRQAPGKEREFVAAITWSGRGTLYADSVEGRFTISRDNAKNTVYLQMNSLRPDDTAAYYCAAGPYGDAAYRHGRIDSWGQGTQVTVSS
notes: as for B8

Fold change [1]: 1.1 fold
EC50 [2]: 0.051 nM
EC50 [3]: 0.054 nM
B19: 8-MP01C12 VHH-hFc, monospecific bivalent (Fc fusion)
chain: QVQLVESGGGLVQPGGSLRLSCATSGFTFSNNFMSWVRQAPGKGLEFVSTISYGGESTTYAEAVKGRFTISRDNAKNTLYLQMNNLKPEDTAIYYCAKATSYTSIRGAPRGQGTQVTVSS
notes: IgG1 Fc LALA-PG; also called anti-IL-2Rα Ab 8; anti-IL-2Rα VHH 8; not shown: human IgG1 CH2 and CH3 domains (Fc)

Fold change [4]: 1.3 fold
EC50 [5]: 0.059 nM
EC50 [6]: 0.074 nM
B20: 184-MP02E11 VHH-hFc, monospecific bivalent (Fc fusion)
chain: QVQLQESGGGLVQAGGSLRLSCAASGRTFSNYVMAWFRQAPGKEREFVGAITQTGRGTFYADSVEGRFTISRINDKNTVYLQMNSLKPEDTAVYYCSAPRSGRAGTRNQMDYEYWGQGTQVTVSS
notes: as for B8

Fold change [4]: 0.7 fold
EC50 [5]: 0.09 nM
EC50 [6]: 0.065 nM
B21: 126-MP02A03 VHH-hFc, monospecific bivalent (Fc fusion)
chain: QVQLVESGGGLVQPGGSLRLSCAASGFTFSNYAMSWVRQAPGKGLEWVSSITGAGRGTYYAESVKGRFTISRDNDKNTLYLQMNSLKPEDTAVYYCAKYDSSTFYPPTPARGIADRGQGTRVTVSS
notes: as for B8

The next lines start with the binder.

B2: 168-MP02B09 VHH-hFc, monospecific bivalent (Fc fusion)
chain: EVQLVESGGGLVQAGGSLRLSCAASGRTFSTTEMGWFRQAPGKEREFVAAITWTGRGTMYAESVEGRFTISRENAKNMVYLQMNSLKPEDTAIYYCAAARRGRAAVRSEGGYDFWGQGTQVTVSS
notes: as for B8
Fold change [4]: 2.4 fold
EC50 [5]: 0.053 nM
EC50 [6]: 0.127 nM

B3: 7-MP01G08 VHH-hFc, monospecific bivalent (Fc fusion)
chain: EVQLVESGGGLVQAGGSLRLSCAASGRAFSMYNMGWFRQAPGKEREFVAATGWSGANTPYADSVKGRFTISRDNTQNTVYLQMNSLKPEDTATYYCAADSIRLRSDVTRIPLEYDYWGQGTQVTVSS
notes: IgG1 Fc LALA-PG; also called 07-MP01G08; not shown: human IgG1 CH2 and CH3 domains (Fc)
Fold change [1]: 0.9 fold
EC50 [2]: 0.072 nM
EC50 [3]: 0.067 nM

B4: 11-MP05H04 VHH-hFc, monospecific bivalent (Fc fusion)
chain: QLQLVESGGGLVQAGGSLRLSCAASGLTFEGYAIGWFRQAPGKEREGVSYITGSDGTTYYINSVKGRFTISSDNAKSTVYLQMNTLKPEDTAVYYCAVDRLGSQGRYASAWWRSGDMDLWGKGTQVTVSS
notes: as for B8
Fold change [1]: 1.2 fold
EC50 [2]: 0.093 nM
EC50 [3]: 0.11 nM

B5: 1-MP01H01 VHH-hFc, monospecific bivalent (Fc fusion)
chain: EVQLVESGGGLVQAGGSLRLSCAASGRTFRTHNMGWFRRAPGKEREFVAAISWNVDNTLYADSVKGRFTISRDNGRNMVYLQMNSLKPEDTAVYYCAADNIPLSSDVAATATEYDYWGQGTQVTVSS
notes: as for B8
Fold change [1]: 1.2 fold
EC50 [2]: 0.052 nM
EC50 [3]: 0.061 nM

B6: 4-MP01F04 VHH-hFc, monospecific bivalent (Fc fusion)
chain: B5 chain with E1Q, R27G, H32R, I51V, T58K, V107M, A108R, A109P
notes: as for B8
Fold change [1]: 1.1 fold
EC50 [2]: 0.053 nM
EC50 [3]: 0.056 nM

B7: 9-MP05G01 VHH-hFc, monospecific bivalent (Fc fusion)
chain: EVQLVESGGGLVQAGGSLRLSCAASGGSIYTYNMGWFRQAPGKEREFVAGTLWSGGDSVYADFAKGRFTLSRENAKNTLYLQMNSLKPEDTATYYCAIDPLSLTSDWRVDELSSWGKGTLVTVSS
notes: as for B8
Fold change [1]: 1 fold
EC50 [2]: 0.065 nM
EC50 [3]: 0.062 nM

B11: 5-MP01F05 VHH-hFc, monospecific bivalent (Fc fusion)
chain: EVQLVESGGGLVQAGGSLRLSCAASIRAFTTWSMAWFRQAPGKEREYVARINVSGSVTYYADFVKGRFTISRDNAKKTMYLEMNNLKPEDTALYYCAADRTGVGTNDYNYWGQGTQVTVSS
notes: as for B8
Fold change [1]: 1.6 fold
EC50 [2]: 0.06 nM
EC50 [3]: 0.095 nM

B14: 297-MP06A08 VHH-hFc, monospecific bivalent (Fc fusion)
chain: EVQLVESGGGLVQAGESLRLSCAASGQYFSTYSMAWFRRTPGKEREFVTIISESGGIKEYVDSVKGRFTVSRDNAKNTVYLQMNSLKPEDTAVYYCAAARDWFARNEYQYDYWGQGTQVTVSS
notes: as for B8
Fold change [4]: 1.2 fold
EC50 [5]: 0.079 nM
EC50 [6]: 0.09 nM

B18: 2-MP01A02 VHH-hFc, monospecific bivalent (Fc fusion)
chain: B19 chain with S30R, F47W, A63S, I93V, T103D, G107S, A108G, P109S
notes: IgG1 Fc LALA-PG; also called anti-IL-2Rα Ab 2; not shown: human IgG1 CH2 and CH3 domains (Fc)
Fold change [1]: 1.1 fold
EC50 [2]: 0.038 nM
EC50 [3]: 0.043 nM

Reference: patent US20240409645A1 (DUALYX, published 2024)
